Data on 4 molecules can be found in article PMC10322703 (Nature Microbiology, 2023).

As a reminder, the Kd is a measure of binding affinity in units of concentration. One may read the koff as the first-order rate constant of dissociation. As usually defined, the kon is the rate constant with which the complex forms.

In the assay the target is SNV Gn^H, recombinant histidine-tagged N-terminal ectodomain region (head domain) of Sin Nombre viru (Sin Nombre virus, UniProt Q89905). Nature of the assay: BLI. The settings on record: both partners purified.

Substitutions are numbered along the chain they refer to. Some results are limits rather than exact numbers.

B1: SNV-42, human monoclonal antibody (IgG1) (antibody, V domains shown)
VH: EVQLVESGGGLVQPGGSLRLSCAASGFTFSTYEMNWVRQAPGKGLEWVSYIRSSGSTVYYADSVKGRFTISRDNAKNLLYLQMNSLRAGDTAVYYCARIPGGYTGYFDYWGQGALVTVSS
VL: QSVLTQPPSVSGAPGQRVTISCTGSSSNIGAGYYVHWYQQLPGTVPKLLIYGNNNRPSGVPDRFSGSKSGTSASLAITGLQTEDEADYYCQSYDSSLSGWVFGGGTKLTVL
Consider B1, for which the Kd is less than 0.001 nM, the koff is less than 1e-07 s⁻¹ and the kon amounted to 132000 M⁻¹ s⁻¹.

B2: SNV-42^GR, germline-revertant form of SNV-42 (IgG1) (antibody, V domains shown)
VH: B1 VH with T31S, R52S, V58I, L78S, G89E, T104S, A114T
VL: B1 VL with Y34D, V45A, N54S, T82A
For the molecule B2, the equilibrium dissociation constant (Kd) turned out to be 0.811 nM, the dissociation rate constant (koff) was determined as 0.000454 s⁻¹ and the kon was 514000 M⁻¹ s⁻¹.

B3: SNV-42 F(ab')2 (other)
chain 1: B1 VH
chain 2: B1 VL
As to B3, the equilibrium dissociation constant (Kd) was less than 0.001 nM, the koff is less than 1e-07 s⁻¹ and the kon came to 61400 M⁻¹ s⁻¹.

B4: SNV-42 Fab (Fab, V domains shown)
VH: B1 VH
VL: B1 VL
As to B4, the koff worked out at 0.00561 s⁻¹ and the kon worked out at 139000 M⁻¹ s⁻¹.
